Where two headings read alike, the source gives them in different places.
What was measured:
[1] = target: T1, HER2 extracellular domain (Her2-ECD) (human, UniProt P04626 23-652); experiment: equilibrium KD; method and format (Fab or IgG) not given; HER2, second number of the cell
T1 construct: extracellular domain; also called hHER2 extracellular domain (ECD)

[2] = target: T1, HER2 extracellular domain (Her2-ECD); experiment: single-spot competitive phage ELISA
[3] = target: T1, HER2 extracellular domain (Her2-ECD); experiment: competitive phage ELISA
[4] = target: T2, human vascular endothelial growth factor (hVEGF) (human, UniProt P15692-4 27-191); experiment: equilibrium KD; method and format (Fab or IgG) not given
T2 construct: also called hVEGF-A; human vascular endothelial growth factor A

[5] = target: T3, bovine serum albumin (BSA) (bovine, UniProt P02769 25-607); experiment: ELISA on immobilised protein
[6] = target: T4, human death receptor 5 (hDR5) (human, UniProt O14763 56-210); experiment: ELISA on immobilised protein
T4 construct: also called DR5 long; hDR5-1f

[7] = target: T1, HER2 extracellular domain (Her2-ECD); experiment: Biacore SPR
hVEGF-C [8] = target: T5, hVEGF-C (human, UniProt P49767 103-227); experiment: ELISA on immobilised target
T5 sequence (looked up): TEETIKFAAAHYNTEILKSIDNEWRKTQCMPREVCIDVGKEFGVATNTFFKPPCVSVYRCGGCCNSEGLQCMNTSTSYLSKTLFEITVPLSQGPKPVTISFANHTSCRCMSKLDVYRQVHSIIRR

murine VEGF (mVEGF) = target: T6, murine VEGF (mVEGF) (murine, UniProt Q00731-2 27-190); experiment: ELISA on immobilised target
T6 sequence (looked up): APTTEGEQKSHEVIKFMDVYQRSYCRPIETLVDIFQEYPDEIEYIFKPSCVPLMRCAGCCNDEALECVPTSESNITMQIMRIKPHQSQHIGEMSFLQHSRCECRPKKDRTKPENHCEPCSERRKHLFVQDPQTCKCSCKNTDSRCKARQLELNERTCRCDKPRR

hVEGF-D [9] = target: T7, hVEGF-D (human, UniProt O43915 93-201); experiment: ELISA on immobilised target
T7 sequence (looked up): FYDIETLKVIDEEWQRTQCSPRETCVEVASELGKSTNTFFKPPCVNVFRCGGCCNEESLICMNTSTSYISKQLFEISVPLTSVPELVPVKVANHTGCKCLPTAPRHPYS

[10] = target: T8, epidermal growth factor receptor extracellular domain (hEGFR) (human, UniProt P00533 25-645); experiment: ELISA on immobilised target
T8 construct: extracellular domain

[11] = target: T1, HER2 extracellular domain (Her2-ECD); experiment: single-spot phage ELISA
hVEGF109 = target: T9, hVEGF109 (human, UniProt P15692 214-315); experiment: Biacore SPR
T9 construct: range 8-109; also called VEGF (8-109)
T9 sequence (looked up): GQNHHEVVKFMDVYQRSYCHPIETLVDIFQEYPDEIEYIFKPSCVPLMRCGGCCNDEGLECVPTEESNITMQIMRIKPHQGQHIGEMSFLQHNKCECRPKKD

hVEGF-C [12] = target: T5, hVEGF-C; experiment: ELISA on immobilised protein
hVEGF-D [13] = target: T7, hVEGF-D; experiment: ELISA on immobilised protein
[14] = target: T1, HER2 extracellular domain (Her2-ECD); experiment: ELISA on immobilised protein
[15] = target: T8, epidermal growth factor receptor …; experiment: ELISA on immobilised protein
[16] = target: T2, human vascular endothelial growth …; experiment: competitive phage ELISA
[17] = target: T1, HER2 extracellular domain (Her2-ECD); experiment: competitive phage ELISA; remark: listed apart in the source
[18] = target: T3, bovine serum albumin (BSA); experiment: ELISA on immobilised target
[19] = target: T4, human death receptor 5 (hDR5); experiment: ELISA on immobilised target

B1: bH3 (antibody, V domains shown)
VH: not shown
VL: DIQMTQSPSSLSASVGDRVTITCRASQDIGLGSVAWYQQKPGKAPKLLIYWASYLYSGVPSRFSGSGSGTDFTLTISSLQPEDFATYYCQQHYTTPPTFGQGTKVEIKR
[1]
  Kd: 8 nM
[2]
  OD450 without competitor: 1.96
[3]
  IC50: 2.6 nM
[4]
  Kd: 19000 nM

B2: H3 hIgG (antibody, V domains shown)
VH: not shown
VL: DIQMTQSPSSLSASVGDRVTITCRASQDIGLGSVAWYQQKPGKAPKLLIYWASYLYSGVPSRFSGSGSGTDFTLTISSLQPEDFATYYCQQHYTTPPTFGQGTKVEIKR
notes: also called bH3 IgG; not shown: rest of the human IgG heavy chain constant region
[5]
  binding result: no binding (tested: 100 or 500 nM (text))
[6]
  binding result: no binding (tested: 100 or 500 nM (text))
[7]
  Kd: 20 nM
hVEGF-C [8]
  binding result: no binding (tested: 100 nM (text))
Murine VEGF (mVEGF)
  binding result: no binding (tested: 100 nM (text))
hVEGF-D [9]
  binding result: no binding (tested: 100 nM (text))
[10]
  binding result: no binding (tested: 100 nM (text))

B3: 3-1 (antibody, V domains shown)
VH: not shown
VL: DIQMTQSPSSLSASVGDRVTITCRASQNVWDWVAWYQQKPGKAPKLLIYPASSLYSGVPSRFSGSGSGTDFTLTISSLQPEDFATYYCQQGWYIAPPTFGQGTKVEIKR
[11]
  binding result: no binding
hVEGF109
  Kd: 15 nM
[4]
  Kd: 15 nM

B4: 3-1 hIgG (antibody, V domains shown)
VH: not shown
VL: DIQMTQSPSSLSASVGDRVTITCRASQNVWDWVAWYQQKPGKAPKLLIYPASSLYSGVPSRFSGSGSGTDFTLTISSLQPEDFATYYCQQGWYIAPPTFGQGTKVEIKR
notes: not shown: rest of the human IgG heavy chain constant region
hVEGF-C [12]
  binding result: no binding (tested: 100 or 500 nM (text))
[5]
  binding result: no binding (tested: 100 or 500 nM (text))
hVEGF-D [13]
  binding result: no binding (tested: 100 or 500 nM (text))
[14]
  binding result: no binding (tested: 100 or 500 nM (text))
[15]
  binding result: no binding (tested: 100 or 500 nM (text))
[6]
  binding result: no binding (tested: 100 or 500 nM (text))
hVEGF109
  Kd: 12 nM

B5: 3-2 (scFv, V domains shown)
VH: not shown
VL: DIQMTQSPSSLSASVGDRVTITCRASQDIRMGSVAWYQQKPGKAPKLLIYWGSVLYSGVPSRFSGSGSGTDFTLTISSLQPEDFATYYCQQHYTTPPTFGQGTKVEIK
[16]
  IC50: > 1000 nM
[17]
  IC50: 1.56 nM

B6: bH1 hIgG (antibody, V domains shown)
VH: not shown
VL: DIQMTQSPSSLSASVGDRVTITCRASQDIPRSISGYVAWYQQKPGKAPKLLIYWGSYLYSGVPSRFSGSGSGTDFTLTISSLQPEDFATYYCQQHYTTPPTFGQGTKVEIKR
notes: also called bH1 IgG; not shown: rest of the human IgG heavy chain constant region
[7]
  Kd: 9.8 nM
hVEGF-C [8]
  binding result: no binding (tested: 100 nM (text))
[18]
  binding result: no binding (tested: 100 nM (text))
hVEGF-D [9]
  binding result: no binding (tested: 100 nM (text))
[10]
  binding result: no binding (tested: 100 nM (text))
[19]
  binding result: no binding (tested: 100 nM (text))
